In US20180021429A1, “ANTICANCER AGENTS OR ANTIMETASTATIC AGENTS USING FSTL1 AND COMBINATION DRUG THEREOF” (PHARMA FOODS INTERNATIONAL CO., LTD., priority 2015, published 2018):

Key:
[1] = tested on: human peripheral blood cells; assay: Treg induction inhibition using human peripheral blood cells stimulated with FSTL1 (Example 25); format: cell-based; details: FSTL1 5 ng/ml, antibody 5 μg/mL, 3 days; FIG. 113
Experimental: Human peripheral blood cells (1×10^6 cells) were stimulated using FSTL1 (5 ng/ml), supplemented with the antibody (5 μg/mL), and cultured for 3 days. The percentage of a Foxp3^+CTLA4^+ cell fraction (Exp. 1) or a CD4^+Foxp3^+CTLA4^+ cell fraction (Exp. 2) in CD4^+ T cells was analyzed as Treg cells by flow cytometry. The flow cytometry conditions are as follows.
Blood was collected from a healthy person by the addition of a 1/10 amount of 4% sodium citrate, then layered on Ficoll (specific gravity: 1.090), and centrifuged (1500 rpm, 20 min, room temperature), and a cell fraction present in an intermediate layer was used as “PBMCs”. The antibody (5 μg/mL) was added to a system in which these PBMCs (1×10^6 cells) were cultured for 3 days under stimulation with FSTL1 (5 ng/ml) in a 24-well plate. PBMCs recovered from the culture system were incubated at 4° C. for 1 hour using an anti-CD4 antibody (BD Pharmingen/Becton, Dickinson and Company), an anti-CD25 antibody (BD Pharmingen/Becton, Dickinson and Company), and an anti-FoxP3 antibody (eBioscience). Then, the percentage of a Foxp3+CTLA4+ cell fraction (Exp. 1) or a CD4^+Foxp3^+CTLA4^+ cell fraction (Exp. 2) in CD4^+ T cells contained therein was analyzed as Treg cells using a flow cytometer FACScan (Becton, Dickinson and Company). […]

[2] = tested on: mouse colorectal cancer CT26 cells; assay: In vivo, mouse colorectal cancer CT26 cell-transplanted model (Example 20); details: intraperitoneal 10 mg/kg on days 4 and 7
Experimental: (§1) Procedures and methods of the experiment were basically performed under substantially the same conditions as in the bone metastasis model experiments of Examples 17 to 19 except that bone metastasis was not evaluated. Specifically, drug efficacy evaluation was conducted using mouse tumor models other than Snail-positive tumor bone metastasis models. The drug efficacy of the anti-FSTL1 antibody was evaluated using cancer-bearing models of BALB/c mice different in strain from the C57BL/6 mice used in the preceding tests. The test was conducted by changing only the amount of tumor implanted, antibody administration timing, and assay timing. • Day 0: transplantation of tumor cells (5×10^5 cells subcutaneously & 5×10^5 cells intravenously) Days 4 and 7: intraperitoneal administration of the antibody (10 mg/kg) • Day 14: drug efficacy evaluation (subcutaneous tumor growth (FIG. 44A) and lung metastasis (FIG. 44B))
For lung metastasis, the number of metastatic nodules in the lung was macroscopically counted. The tumor volumes of the mice were measured 7, 11, and 14 days after tumor implantation.
as §1, with “intravenously) •” for “intravenously)”, “76A)” for “44A)”, “76B))” for “44B))”

mouse melanoma B16-F10 = assay: Mouse melanoma B16-F10 model, subcutaneous and intravenous transplantation (Example 22); format: in vivo; details: intraperitoneal 10 mg/kg on days 3 and 6; FIG. 110
Experimental: The drug efficacy of the anti-FSTL1 antibody was evaluated according to Examples 17 to 20 using other cancer-bearing models of C57BL/6 mice of the same strain as in Snail-positive tumor bone metastasis models. The “mouse melanoma B16-F10” is a parent line of the cell line forced to express Snail, which was transplanted in the bone metastasis models used in the preceding tests.
1. Experiment Group (n=5) • 1. Mouse melanoma B16-F10+control IgG (anti-DNP mAb) • 2. Mouse melanoma B16-F10+anti-FSTL1 mAb (#6-55)
• Day 0: transplantation of tumor cells (1×10^6 cells subcutaneously & 1×10^6 cells intravenously) • Day 3: intraperitoneal administration of the antibody (first dose, corresponding to 200 μg/mouse=10 mg/kg) • Day 6: intraperitoneal administration of the antibody (second dose, corresponding to 200 μg/mouse=10 mg/kg) • Day 15 various immunological assays
• Effects on the growth of subcutaneous tumor (calculation of tumor volume by tumor size measurement): measured 6, 10, and 14 days after tumor implantation (FIG. 110A) • Effects on weight loss (FIG. 110B)

B1: #6-55: chicken-mouse chimeric anti-FSTL1 antibody clone; variable regions SEQ ID NO: 783 (light), 785 (heavy) (antibody, V domains shown)
VH: AVTLDESGGGLQTPGGALSLVCKGSGFTFTSVTMQWVRQAPGKGLEWVASVCSGSSTYYAPAVKGRATISRDNGQSTVRLQLSNLRPEDTGTYYCAKIAGRARWSCTSAAYNIDAWGHGTEVIVSS
VL: ASTQPSSVSAIPGETVKITCSGGGNNYGWYQQRSPGSAPVTVIYYNDNRPSNIPSRFSGSTSGSTSTLTITGVQADDEAIYYCGSWDSNTDSGIFGAGTTLTVL
modifications: mouse constant regions
Treg induction caused by FSTL1 (Foxp3+CTLA4+ fraction in CD4+ T cells) [1]: significantly suppressed
growth of CT26 subcutaneous tumor ([2]; BALB/c mice): very strongly suppressed
lung metastasis of CT26 tumor ([2]; BALB/c mice, day 14): very strongly suppressed
mice in which solid tumor disappeared ([2]; n=5): three out of the five mice
subcutaneous tumor growth (mouse melanoma B16-F10): strongly suppressed
weight loss (mouse melanoma B16-F10): suppressive activity against weight loss was also exhibited
